# Measurements as given in patent publication US20250034594A1, “RNA-GUIDED GENOME RECOMBINEERING AT KILOBASE SCALE” (THE BOARD OF TRUSTEES OF THE LELAND STANFORD JUNIOR …, priority 2021, published 2025).
# B1: SSAP_74: SEQ ID NO: 243 (protein)
# chain: SNPPLAQADLQKTQGTEVKTKTKDQQLIHFINQPSMKAQLAAALPRHMTPDRMIRIVTTEIRKTPALANCDMQSFIGAVVQCSQLGLEPGNALGHAYLLPFGNGKAKSGQSNVQLIIGYRGMIDLARRSNQIISISARTVRQGDSFHFEYGLNENLTHVPGENEDSPITHVYAVARLKDGGVQFEVMTHNQIEKVRASSKAGQNGPWVSHWEEMAKKTVIRRLFKYLPVSIEMQKAVILDEKAEANVDQENASVFEGEFEEVSQSA
# B2: SSAP_176: SEQ ID NO: 345; Absicoccus porci (protein, listed as Absicoccus porci)
# chain: TTTNQQGMITKKANNSVAKKTNRTMKDYITMYQGEIAKALPSVMTPERFVRIATTAVTNTPKLASCTPQSFIGALLNAAQLGLEPNTPLGQAYLIPYGNQCQFQIGYLGMVELAQRAGTNVDAHVVYANDEFDYSLGLHPDIKHVPAMKDRGEAIAYYAVWHNGENFGFEVMSREDVEKHMKKYSKTYSNGPWKTEFDEMAKKTVLKRALKYAPKKTDLARAVMQDETIKQFNPKADNDMADAKNDFFDVEYDEVDENTDPVTGEVK
# B3: SSAP_227: SEQ ID NO: 396; Streptococcus parauberis (protein, listed as Streptococcus parauberis)
# chain: ANQLTVVNTLQSDAVKEKFEAVMGEKANGFVSSVLSVVTNNNILSKADFNSVYTSAMKAAVLDLPVEPSLGMAHIVPYKGKAQFQIGYKGLIQLALRSGQVVGLNAGKVYEGQFKSFNALTEKLDIVDIYNPKKDEPIVGYFAYMKLSNGFEKTTYWTKEQVEEHGKKYSQSYDSKFSPWQTNFDAMARKTVLKSILSTYAPLTIEMQNANDFDNGKNTGIEPLEVKDVTPETDNESLLTDLLEDEPSVNTETGEIIEDTELDLDYGQINAK
# B4: SSAP_130: SEQ ID NO: 299; Peptoanaerobacter stomatis (protein, listed as Peptoanaerobacter stomatis)
# chain: GAKELIQKKQENKQISPTSNMNMLLQSMAGAIKKALPAQINSERFQRVALTAFSSNQKLQQCDPISFLAAMMQSAQLGLEPNTPLGQAYLIPYGKQVQFQVGYKGLLELAQRSGQFKSIYSHEVRENDEFEMEYGLNQKLVHKPNLKQERGEVIGYYACYHLTNGGESMFFMTKDEIINFGKSKSKTFNNGPWQTDFDAMAKKTVLKQLLKYAPLSIESQKFMSMDETVKSDISANMDEINNDTVDFEVDIQTGEVINDIVVENTNEDEAN
# B5: SSAP_97: SEQ ID NO: 266; Gilliamella apicola (protein, listed as Gilliamella apicola)
# chain: SEQNQPPIAKSDLEKTQLTNQDKKPATLAELVNSPKIKNQLAMALPKHMNPDRMARIVTTEIRKTPALADSNIQSFLGAVVQCSQLGLEPGGALGHAYLLPFGNGKAKDGKSNVQLIIGYRGMIDLARRSGQIISISARTVREGDDFHYEYGLNEDLKHTPKADESAPITYVYAVARLKDGGSQFEVMTFNQIESVRKQSKAGDKGPWITHWEEMAKKTVIRRLFKYLPVSIEIQQAVILDEKAEAGISQDNEMILDADFSVVEA
# B6: SSAP_266: SEQ ID NO: 435; Bacteroides stercoris (protein, listed as Bacteroides stercoris)
# chain: STITTIPQLKSMLANDNVKARFKEILGKKAPGFISSIVAVANSNTLLQKAEPQSIMNAAVVAATLDLPINPNLGFAYVVPYGNQAQFQMGWRGFVQLAMRSGQYKTINVNEIYEGEIKKSNRFTGEYEFGERASDKIVGYMAYFSLINGFEKFLYMSKEDCEKHGRKFSQTYKRGTGIWSTDFDSMAKKTVLKMLLSKFGILSIEMQRAQTFDQAIIKDNLAETDIDEAEVSYNDNPDNEEARRNAMKEALQEAEVVDENTGELFNTETK
# B7: SSAP_27: SEQ ID NO: 196 (protein)
# chain: SNNQLSTQQAKRDIAIDTSVWTFQDVKRYFDPQNLLTEKQVGQALSLIKGRNLNPLANEVYIVAYKKKTGGTEFSLIVSKEAFLKRAAQNPNYEGFEAGVVTVDTDGVMHERKGALMLPGDTLVGGWARVYRKNFKVPVEIFVSREEYDKKQSTWNAMPATMIRKTALVNALREAFPEDLGNMYTEDDGGETFDRIKQAEPVESREDVMARKMAQIEQMKQEQAQRQIDTSYPTDDVIDPDDEPAQGELLEDLEY
# B8: SSAP_258: SEQ ID NO: 427; Clostridium thermopalmarium (protein, listed as Clostridium thermopalmarium)
# chain: ATVNELKNEIATKKETGVGSAGNTIKGLINSPAIKKRFEDVLNKKAPQYMSSIVNLVNGDTNLKKCDQMSVIASCMVAATLDLPIDKNLGYAWIVPYGNRAQFQLGYKGYVQLALRTGQYKAINVIEVHEGELIEWNPLTEELKIDFSQKKSDAIIGYAGYFELLNGFKKSTYWTKEQIIRHKNKFSKSDFGWKKDFDAMAKKTVLRNMLSKWGILSIEMQNAYTADQATIRPEAVETGDIKGNVDYVEADFEENYEGTPFEEVEEGGVNE
# B9: SSAP_275: SEQ ID NO: 444; Paenibacillus pinihumi (protein, listed as Paenibacillus pinihumi)
# chain: ADANKLLVINEKLIKLIESKQDAMPKSFNKTRFIQNCMAVLQDTDEIDKCDATSVARTLLKGAFLGLDFMNKECYPIIYGGKCTFQTDYKGEIKLAQKYSVRPVLNIYAELVREGDFFLKEVKDGQRTIQHKPPEGFNDGKVIGAFAIVLYKDGGMDCESMSVAEIETTRKNYSKQANGPSWTKSPGEMQKKTVLRRLCKTIQLDFDTIEAKEAFEDGGDFDFKQDPKPQQQSPFDKNATVVDAEYEEVEEEDQSESAT
# B10: SSAP_259: SEQ ID NO: 428; Virgibacillus chiguensis (protein, listed as Virgibacillus chiguensis)
# chain: ATNSSLKNQIANKGNGNQNTPQGYTVKQLMSASSVKNRFEETLGKKAPQFMASVINLVNGDTNLQKCDQMSVVSSAMVAAALDLPIDKNLGYAWVVPYGNKATFQMGYKGYIQLALRTGQYKNINVIEVYEGEVKSFNRLTEEIELEFEGKESDKVIGYVGYFELINGFRKTVYWSKDEIERHKKRFSKTGFAWKDNYDAMAKKTVIRNMLNKWGILSIDMQTAVTTDGNAVTQDFEQEDSGLVIDAEFSEVNEASEGQQEIKFENADA
# B11: SSAP_106: SEQ ID NO: 275; Tepidibacillus fermentans (protein)
# chain: ATNEKVKTQLANRANGQAPTPTPEQTIAAYMKKMAPRFAEVLPKHMDIDRMTRIALTTIRTNPKLLEASVPSLLGAIMQAAQLGLEPGLVGHCYLVPFKNGKTGQTEVQFIIGYKGMIDLARRSGNIESIYAHAVYENDTFEYEYGLHPKLVHKPAMTDRGEFIGAYAVAHFKDGGYQFEFMPKEEIEKRRNRSKTANGGPWVTDYEEMAKKTVVRHMWKYLPISIEIQQAAAQDEVIRKDVTSEPEFVDDVIDISTEIEEQSVEVEGEEAQ
# modifications: Tepidibacillus fermentans
# B12: SSAP_170: SEQ ID NO: 339; Dorea longicatena (protein, listed as Dorea longicatena)
# chain: TVGKTDEIKQELARKVENTKAGTKLKKSMSIADMIKVMEPQIKKALPEVITPERFTRMALSALNTTPKLNECTPMSFLAALMNAAQLGLEPNTPLGQAFLIPYNNKGKMECQFQLGYKGLIDLSYRNPNMQIITAHTVYENDEFEYELGLNPCLDHRPTLGERGEIRLFYGLFKLTNGGFGFEVMSKTAMDDFAKEYSKAFDSSFSPWRTNYESMALKTIIKKALKYAPLKSEFRNALSTDETIKNEIGADMSEINSENIFDTVYQEECA
# B13: SSAP_62: SEQ ID NO: 231 (protein)
# chain: SEISKAVATQQNPLAVVARYKRELGTVLPTVLRQDPDRWLMAAENAARKNPDIMAVTKADQGASYMRALVECARLGHEPGSKDFHFIKRGNAISGEESYRGIIKRVLNSGFYRSVVARTVFSNDTYSFDPLTDIVPNHVPAQGDRGKPLSAYAFAVHWDGTPSTVAEATPERIATAKAKSFASDKPTSPWQLPTGVMYRKTAIRELEPYVHVAPEPQPRRHLDGTVGGIPATDFDVDDGDVLDITADQLAEAGEIV
# Experiments:
# Type in all cases: cell-based
# gene editing with dCas9 = assay: Screen of 322 new SSAP proteins, gene editing activity with dCas9 (Table 5); set-up: dCas9 with SSAP activity: scale not given here
# Outline: (§1)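 The 322 SSAP proteins were found in sequence data and then synthesized. Each was screened for gene editing activity when paired with Cas9 and with dCas9.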
# gene editing with Cas9 = assay: Screen of 322 new SSAP proteins, gene editing activity with Cas9 (Table 5); set-up: Cas9 with SSAP activity: scale not given here
# Outline: as §1
# [1] = system: gene editing with Cas9 and dCas9; assay: Screen of 322 new SSAP proteins, activity across all experiments (Cas9 and dCas9, Table 5); set-up: scale not given here
# Outline: as §1
molecule,measurement,setting,value
B1,dCas9 with SSAP activity,gene editing with dCas9,0.668
same,dCas9 with SSAP activity (normalized),gene editing with dCas9,0.984
same,Cas9 with SSAP activity,gene editing with Cas9,0.893
same,Cas9 with SSAP activity (normalized),gene editing with Cas9,0.751
same,Activity across all experiments,[1],0.781
B2,dCas9 with SSAP activity,gene editing with dCas9,−4.682
same,dCas9 with SSAP activity (normalized),gene editing with dCas9,−0.680
same,Cas9 with SSAP activity,gene editing with Cas9,1.105
same,Cas9 with SSAP activity (normalized),gene editing with Cas9,2.418
same,Activity across all experiments,[1],−1.789
B3,dCas9 with SSAP activity,gene editing with dCas9,−4.819
same,dCas9 with SSAP activity (normalized),gene editing with dCas9,−0.774
same,Cas9 with SSAP activity,gene editing with Cas9,−0.330
same,Cas9 with SSAP activity (normalized),gene editing with Cas9,−0.310
same,Activity across all experiments,[1],−2.575
B4,dCas9 with SSAP activity,gene editing with dCas9,−4.650
same,dCas9 with SSAP activity (normalized),gene editing with dCas9,−0.774
same,Cas9 with SSAP activity,gene editing with Cas9,−0.778
same,Cas9 with SSAP activity (normalized),gene editing with Cas9,−0.800
same,Activity across all experiments,[1],−2.714
B5,dCas9 with SSAP activity,gene editing with dCas9,−4.633
same,dCas9 with SSAP activity (normalized),gene editing with dCas9,−0.842
same,Cas9 with SSAP activity,gene editing with Cas9,−5.948
same,Cas9 with SSAP activity (normalized),gene editing with Cas9,−1.267
same,Activity across all experiments,[1],−5.290
B6,dCas9 with SSAP activity,gene editing with dCas9,−4.677
same,dCas9 with SSAP activity (normalized),gene editing with dCas9,−0.799
same,Cas9 with SSAP activity,gene editing with Cas9,−6.013
same,Cas9 with SSAP activity (normalized),gene editing with Cas9,−1.700
same,Activity across all experiments,[1],−5.345
B7,dCas9 with SSAP activity,gene editing with dCas9,−4.680
same,dCas9 with SSAP activity (normalized),gene editing with dCas9,−0.675
same,Cas9 with SSAP activity,gene editing with Cas9,−2.642
same,Cas9 with SSAP activity (normalized),gene editing with Cas9,−0.956
same,Activity across all experiments,[1],−3.661
B8,dCas9 with SSAP activity,gene editing with dCas9,−4.748
same,dCas9 with SSAP activity (normalized),gene editing with dCas9,−0.956
same,Cas9 with SSAP activity,gene editing with Cas9,−3.280
same,Cas9 with SSAP activity (normalized),gene editing with Cas9,−0.553
same,Activity across all experiments,[1],−4.014
B9,dCas9 with SSAP activity,gene editing with dCas9,−4.593
same,dCas9 with SSAP activity (normalized),gene editing with dCas9,−0.870
same,Cas9 with SSAP activity,gene editing with Cas9,−1.206
same,Cas9 with SSAP activity (normalized),gene editing with Cas9,−0.494
same,Activity across all experiments,[1],−2.900
B10,dCas9 with SSAP activity,gene editing with dCas9,−4.841
same,dCas9 with SSAP activity (normalized),gene editing with dCas9,−1.414
same,Cas9 with SSAP activity,gene editing with Cas9,−2.773
same,Cas9 with SSAP activity (normalized),gene editing with Cas9,−0.529
same,Activity across all experiments,[1],−3.807
B11,dCas9 with SSAP activity,gene editing with dCas9,−4.572
same,dCas9 with SSAP activity (normalized),gene editing with dCas9,−0.829
same,Cas9 with SSAP activity,gene editing with Cas9,−5.574
same,Cas9 with SSAP activity (normalized),gene editing with Cas9,−1.211
same,Activity across all experiments,[1],−5.073
B12,dCas9 with SSAP activity,gene editing with dCas9,−4.682
same,dCas9 with SSAP activity (normalized),gene editing with dCas9,−0.968
same,Cas9 with SSAP activity,gene editing with Cas9,2.314
same,Cas9 with SSAP activity (normalized),gene editing with Cas9,1.852
same,Activity across all experiments,[1],−1.184
B13,dCas9 with SSAP activity,gene editing with dCas9,−4.940
same,dCas9 with SSAP activity (normalized),gene editing with dCas9,−0.604
same,Cas9 with SSAP activity,gene editing with Cas9,−2.135
same,Cas9 with SSAP activity (normalized),gene editing with Cas9,−1.289
same,Activity across all experiments,[1],−3.538
